Reference: paper PMC8863895, “A synthetic protein as efficient multitarget regulator against complement over-activation” (Communications Biology, 2022)

How the values were obtained:
Settings in all cases: both partners purified
C7 = target: T1, C7 (human, UniProt P10643 23-843); assay: ELISA; C5b6, C6, C7, C8, C9, C3b or C5 (5 µg/mL) immobilised on Maxisorp plates; single concentration of regulator (25 nM MFHR13 or MFHR1 variants, 50 nM FHR1); detected with anti-His-tag antibodies
T1 construct: complement component C7; Supplier is stated for the ELISA; also called complement component C7; source: bought: CompTech

C8 = target: T2, C8 (human, UniProt P07357 31-584; P07358 55-591; P07360 21-202); assay: as above
T2 construct: also called complement component C8; source: bought: CompTech; copies: + +

C9 = target: T3, C9 (human, UniProt P02748 22-559); assay: as above
T3 construct: complement component C9; Supplier is stated for the ELISA; also called complement component C9; source: bought: CompTech

C6 = target: T4, C6 (human, UniProt P13671 22-934); assay: as above
T4 construct: complement component C6; also called complement component C6; source: bought: CompTech

complement C3b = target: T5, complement C3b (UniProt P01024 749-1663; P01024 749-1663); assay: ELISA; 5 µg/mL C3b or C5 immobilised on Maxisorp plates at 4 °C overnight; increasing concentrations of regulator (0.195-50 nM) in sample buffer (2% BSA in TBS, 0.05% Tween-20); detected with anti-His-tag antibodies; absorbance normalised to the highest concentration; IC50 from a 4PL nonlinear regression
T5 construct: C3b beta-chain, cut product of complement C3; C3b alpha'-chain, cut product of complement C3 (alpha chain without C3a); source: bought: CompTech

complement C5 = target: T6, complement C5; assay: as above
T6 construct: complement C5 beta chain; complement C5 alpha chain; source: bought: CompTech

C3b = target: T7, C3b (human); assay: ELISA; decay acceleration assay: 250 ng C3b immobilised on Maxisorp; C3bBb formed with 400 ng Factor B and 25 ng Factor D, 2 h 37 °C; increasing concentrations of regulator, 40 min 37 °C; Bb remaining bound to C3b detected with anti-factor B polyclonal antibody
T7 construct: complement C3, C3b β-chain; complement C3, C3b α′-chain (C3 α-chain after release of C3a); also called complement C3b; source: bought: CompTech

T4 sequence (P13671 22-934): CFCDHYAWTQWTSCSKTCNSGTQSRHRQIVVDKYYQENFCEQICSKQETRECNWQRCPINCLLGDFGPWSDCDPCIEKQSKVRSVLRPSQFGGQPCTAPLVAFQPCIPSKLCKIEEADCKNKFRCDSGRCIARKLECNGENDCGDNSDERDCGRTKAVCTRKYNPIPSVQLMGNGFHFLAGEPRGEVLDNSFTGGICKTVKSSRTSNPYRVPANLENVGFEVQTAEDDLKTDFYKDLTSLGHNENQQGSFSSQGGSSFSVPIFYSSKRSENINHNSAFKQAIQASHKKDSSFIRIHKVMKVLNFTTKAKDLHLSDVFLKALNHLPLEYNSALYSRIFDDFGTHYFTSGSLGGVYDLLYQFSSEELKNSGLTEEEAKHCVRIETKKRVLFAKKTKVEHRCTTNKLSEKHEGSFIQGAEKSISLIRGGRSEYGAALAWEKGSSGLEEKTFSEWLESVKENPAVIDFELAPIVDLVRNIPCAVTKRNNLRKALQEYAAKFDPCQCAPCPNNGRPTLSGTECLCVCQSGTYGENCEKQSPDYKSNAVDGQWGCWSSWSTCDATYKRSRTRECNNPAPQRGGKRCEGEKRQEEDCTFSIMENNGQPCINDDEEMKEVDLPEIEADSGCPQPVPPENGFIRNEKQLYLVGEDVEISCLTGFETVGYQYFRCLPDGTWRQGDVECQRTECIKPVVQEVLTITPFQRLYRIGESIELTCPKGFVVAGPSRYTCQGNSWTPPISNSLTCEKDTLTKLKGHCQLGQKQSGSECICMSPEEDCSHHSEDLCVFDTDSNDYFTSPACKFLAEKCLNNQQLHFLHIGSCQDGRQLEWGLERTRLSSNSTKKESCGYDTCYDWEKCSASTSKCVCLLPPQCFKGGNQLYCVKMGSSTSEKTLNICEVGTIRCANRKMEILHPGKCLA
T3 sequence (P02748 22-559): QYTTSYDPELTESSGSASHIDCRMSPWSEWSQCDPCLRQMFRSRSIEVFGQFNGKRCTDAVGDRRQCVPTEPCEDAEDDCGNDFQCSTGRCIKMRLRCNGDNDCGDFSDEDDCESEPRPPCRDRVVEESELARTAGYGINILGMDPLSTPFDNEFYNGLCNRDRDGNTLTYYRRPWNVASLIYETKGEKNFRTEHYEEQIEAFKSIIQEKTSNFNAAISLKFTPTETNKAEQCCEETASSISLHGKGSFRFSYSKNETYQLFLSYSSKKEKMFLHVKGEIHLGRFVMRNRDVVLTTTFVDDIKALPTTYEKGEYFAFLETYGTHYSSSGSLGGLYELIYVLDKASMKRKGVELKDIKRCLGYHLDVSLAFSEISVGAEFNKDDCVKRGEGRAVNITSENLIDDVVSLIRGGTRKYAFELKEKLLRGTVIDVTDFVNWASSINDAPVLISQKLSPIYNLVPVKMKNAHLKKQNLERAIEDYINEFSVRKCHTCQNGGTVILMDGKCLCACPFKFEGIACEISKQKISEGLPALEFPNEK
T2 sequence (P07357 31-584, chain 1 of 3): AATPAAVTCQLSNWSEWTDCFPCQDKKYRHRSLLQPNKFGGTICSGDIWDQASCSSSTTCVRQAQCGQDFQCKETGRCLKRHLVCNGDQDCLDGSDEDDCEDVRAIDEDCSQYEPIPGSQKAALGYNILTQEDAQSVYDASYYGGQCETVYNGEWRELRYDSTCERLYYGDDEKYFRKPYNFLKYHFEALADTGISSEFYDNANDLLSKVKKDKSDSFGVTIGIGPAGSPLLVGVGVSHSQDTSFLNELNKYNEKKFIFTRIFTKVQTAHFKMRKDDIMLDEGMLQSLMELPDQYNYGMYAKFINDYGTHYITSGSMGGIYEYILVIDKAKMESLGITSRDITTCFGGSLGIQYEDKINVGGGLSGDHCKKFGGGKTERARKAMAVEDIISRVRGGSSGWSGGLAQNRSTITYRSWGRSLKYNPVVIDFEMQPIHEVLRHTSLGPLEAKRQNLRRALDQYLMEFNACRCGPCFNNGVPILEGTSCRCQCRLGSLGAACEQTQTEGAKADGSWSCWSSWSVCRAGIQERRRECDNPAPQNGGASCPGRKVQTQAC
T2 sequence (P07358 55-591, chain 2 of 3): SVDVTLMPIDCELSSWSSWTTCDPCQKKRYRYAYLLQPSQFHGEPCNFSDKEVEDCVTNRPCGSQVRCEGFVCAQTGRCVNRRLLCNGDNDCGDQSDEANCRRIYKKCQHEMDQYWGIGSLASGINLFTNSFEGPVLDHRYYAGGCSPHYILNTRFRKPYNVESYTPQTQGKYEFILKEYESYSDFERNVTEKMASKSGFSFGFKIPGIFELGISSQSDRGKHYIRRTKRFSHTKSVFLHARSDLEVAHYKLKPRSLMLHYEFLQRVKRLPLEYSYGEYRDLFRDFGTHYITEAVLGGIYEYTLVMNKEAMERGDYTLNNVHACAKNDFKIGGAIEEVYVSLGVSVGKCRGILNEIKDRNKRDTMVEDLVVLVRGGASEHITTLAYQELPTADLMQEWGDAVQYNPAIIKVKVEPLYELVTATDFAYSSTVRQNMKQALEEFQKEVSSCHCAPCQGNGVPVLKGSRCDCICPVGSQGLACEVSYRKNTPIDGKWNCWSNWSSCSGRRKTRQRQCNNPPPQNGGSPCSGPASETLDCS
T2 sequence (P07360 21-202, chain 3 of 3): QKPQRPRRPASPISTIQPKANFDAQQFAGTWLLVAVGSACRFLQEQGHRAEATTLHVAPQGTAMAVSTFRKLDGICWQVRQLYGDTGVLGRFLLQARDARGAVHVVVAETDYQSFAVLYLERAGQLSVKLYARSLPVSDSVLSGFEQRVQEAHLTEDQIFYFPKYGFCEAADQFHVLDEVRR
T1 sequence (P10643 23-843): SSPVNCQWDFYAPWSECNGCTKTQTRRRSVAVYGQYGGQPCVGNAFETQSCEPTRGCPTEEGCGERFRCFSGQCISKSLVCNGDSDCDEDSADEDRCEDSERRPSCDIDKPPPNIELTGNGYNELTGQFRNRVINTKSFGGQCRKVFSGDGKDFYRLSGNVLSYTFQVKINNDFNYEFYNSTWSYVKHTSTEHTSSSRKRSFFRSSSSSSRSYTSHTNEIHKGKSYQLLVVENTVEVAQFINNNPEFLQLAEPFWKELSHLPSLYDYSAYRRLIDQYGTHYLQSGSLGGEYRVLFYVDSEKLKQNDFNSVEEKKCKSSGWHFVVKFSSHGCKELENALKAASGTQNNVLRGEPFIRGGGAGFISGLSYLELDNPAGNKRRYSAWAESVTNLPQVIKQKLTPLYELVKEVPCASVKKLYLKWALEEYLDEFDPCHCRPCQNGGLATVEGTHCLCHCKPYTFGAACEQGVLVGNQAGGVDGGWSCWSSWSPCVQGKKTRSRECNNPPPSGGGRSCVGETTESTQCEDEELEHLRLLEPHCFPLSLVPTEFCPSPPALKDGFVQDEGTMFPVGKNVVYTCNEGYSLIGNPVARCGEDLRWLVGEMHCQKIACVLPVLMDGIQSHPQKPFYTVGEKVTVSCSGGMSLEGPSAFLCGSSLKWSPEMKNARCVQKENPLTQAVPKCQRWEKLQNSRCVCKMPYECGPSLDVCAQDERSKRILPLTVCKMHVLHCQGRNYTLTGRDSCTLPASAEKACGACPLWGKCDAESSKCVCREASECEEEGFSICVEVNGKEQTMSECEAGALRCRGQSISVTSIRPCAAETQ

B1: Recombinant FHR1 (human FH-related protein 1) with a C-terminal 6x His-tag (natural protein, UniProt Q03591 19-330, looked up)
chain: EATFCDFPKINHGILYDEEKYKPFSQVPTGEVFYYSCEYNFVSPSKSFWTRITCTEEGWSPTPKCLRLCFFPFVENGHSESSGQTHLEGDTVQIICNTGYRLQNNENNISCVERGWSTPPKCRSTDTSCVNPPTVQNAHILSRQMSKYPSGERVRYECRSPYEMFGDEEVMCLNGNWTEPPQCKDSTGKCGPPPPIDNGDITSFPLSVYAPASSVEYQCQNLYQLEGNKRITCRNGQWSEPPKCLHPCVISREIMENYNIALRWTAKQKLYLRTGESAEFVCKRGYRLSSRSHTLRTTCWDGKLEYPTCAKR
notes: complement factor H-related protein 1 (FHR1), human; source: bought: Abcam 152006; not shown: His6, C-terminal, kept
Q: Does B1 bind (C7)?
A: binds

Q: Does B1 bind (C8)?
A: binds

Q: Does B1 bind (C9)?
A: binds

Q: Does B1 bind (C6)?
A: binds

B2: MFHR13 (FHR1_(1-2):FH1-4:FH13:FH_(19-20)) (other)
chain: EATFCDFPKINHGILYDEEKYKPFSQVPTGEVFYYSCEYNFVSPSKSFWTRITCTEEGWSPTPKCLRLCFFPFVENGHSESSGQTHLEGDTVQIICNTGYRLQNNENNISCVERGWSTPPKCRSEDCNELPPRRNTEILTGSWSDQTYPEGTQAIYKCRPGYRSLGNIIMVCRKGEWVALNPLRKCQKRPCGHPGDTPFGTFTLTGGNVFEYGVKAVYTCNEGYQLLGEINYRECDTDGWTNDIPICEVVKCLPVTAPENGKIVSSAMEPDREYHFGQAVRFVCNSGYKIEGDEEMHCSDDGFWSKEKPKCVEISCKSPDVINGSPISQKIIYKENERFQYKCNMGYEYSERGDAVCTESGWRPLPSCVAIDKLKKCKSSNLIILEEHLKNKKEFDHNSNIRYRCRGKEGWIHTVCINGRWDPEVNCSMAQIQLCGPPPPIDNGDITSFPLSVYAPASSVEYQCQNLYQLEGNKRITCRNGQWSEPPKCLHPCVISREIMENYNIALRWTAKQKLYSRTGESVEFVCKRGYRLSSRSHTLRTTCWDGKLEYPTCAKR
Q: How did the IC50 (complement C3b) turn out when B2 was run?
A: 16.1 nM

Q: What about the IC50 (complement C5) of the same binder?
A: 52.5 nM

B3: MFHR13 (FHR1_(1-2):FH1-4:FH13:FH_(19-20)) (other)
chain: EATFCDFPKINHGILYDEEKYKPFSQVPTGEVFYYSCEYNFVSPSKSFWTRITCTEEGWSPTPKCLRLCFFPFVENGHSESSGQTHLEGDTVQIICNTGYRLQNNENNISCVERGWSTPPKCRSTEDCNELPPRRNTEILTGSWSDQTYPEGTQAIYKCRPGYRSLGNIIMVCRKGEWVALNPLRKCQKRPCGHPGDTPFGTFTLTGGNVFEYGVKAVYTCNEGYQLLGEINYRECDTDGWTNDIPICEVVKCLPVTAPENGKIVSSAMEPDREYHFGQAVRFVCNSGYKIEGDEEMHCSDDGFWSKEKPKCVEISCKSPDVINGSPISQKIIYKENERFQYKCNMGYEYSERGDAVCTESGWRPLPSCVAIDKLKKCKSSNLIILEEHLKNKKEFDHNSNIRYRCRGKEGWIHTVCINGRWDPEVNCSMAQIQLCGPPPPIDNGDITSFPLSVYAPASSVEYQCQNLYQLEGNKRITCRNGQWSEPPKCLHPCVISREIMENYNIALRWTAKQKLYSRTGESVEFVCKRGYRLSSRSHTLRTTCWDGKLEYPTCAKR
modifications: N-glycan at the NIS site in FHR1 SCR2 (around 65% occupied); N-glycan at the NCS site in FH13 (fully glycosylated); glycosylation site in FH4 deamidated and not glycosylated; labelled with NT-647 RED-NHS for MST
Q: How did the IC50 (C3b) turn out when B3 was run?
A: 2.7 nM
